Measured values reported in article PMC3378324.

Key:
[1] = target: Nef (Human immunodeficiency virus 1) (UniProt P04324); conditions: cited from earlier work
[2] = target: Fyn(R96I)-SH3, 6xHis C-terminal fusion (human) (UniProt P06241); experiment: ITC
[3] = target: Fyn(WT)-SH3, 6xHis C-terminal fusion (human) (UniProt P06241); experiment: ITC
Sequence of Fyn(WT)-SH3, 6xHis C-terminal fusion (human) (P06241 85-141): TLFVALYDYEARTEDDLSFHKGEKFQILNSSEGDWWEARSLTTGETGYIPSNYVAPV

Sequence of Fyn SH3 SH3 (P06241 79-146): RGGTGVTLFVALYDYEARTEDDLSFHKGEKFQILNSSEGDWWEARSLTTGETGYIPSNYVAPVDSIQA
Sequence of Fyn(R96I)-SH3, 6xHis C-terminal fusion (human) (P06241 86-143 R96I): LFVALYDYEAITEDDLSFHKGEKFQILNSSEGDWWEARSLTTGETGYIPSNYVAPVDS

Row | Substance | Kd [1] | Kd [2] | Kd [3]
1 | Fyn SH3 SH3 (from UniProt P06241) | > 20 µM |  | 
2 | ALIXPI peptide (Alix residues 737 to 760) (from UniProt Q8WUM4 737-760) |  | 54 µM | 160 µM
